Data: patent US20050070001A1, “Xylosyltransferase and isoforms thereof” (priority 1999, published 2005)
Values belong to the molecule of their own block, whether it stands above or below them.

Columns and labels:
recombinant XT-I = biological target: T1, recombinant XT-I (Homo sapiens, UniProt Q86Y38); assay: XT activity assay of recombinant XT-I expressed in CHO-K1 cells with different acceptors and with heparin; type: biochemical; conditions: for XT Activitiy pCG227-XT: recombinant XT-I from CHO-K1 cells, immunoprecipitated on beads, named acceptor, without heparin, n.d. = not detected (detection limit 20 μU/l)
T1 construct: polyhistidine leader of vector pcDNA4/HisMax-TOPO (own knowledge of the vector); made in house; host or cells: CHO-K1, transient transfection with pCG227-XT-I
T1 sequence (Q86Y38 148-959): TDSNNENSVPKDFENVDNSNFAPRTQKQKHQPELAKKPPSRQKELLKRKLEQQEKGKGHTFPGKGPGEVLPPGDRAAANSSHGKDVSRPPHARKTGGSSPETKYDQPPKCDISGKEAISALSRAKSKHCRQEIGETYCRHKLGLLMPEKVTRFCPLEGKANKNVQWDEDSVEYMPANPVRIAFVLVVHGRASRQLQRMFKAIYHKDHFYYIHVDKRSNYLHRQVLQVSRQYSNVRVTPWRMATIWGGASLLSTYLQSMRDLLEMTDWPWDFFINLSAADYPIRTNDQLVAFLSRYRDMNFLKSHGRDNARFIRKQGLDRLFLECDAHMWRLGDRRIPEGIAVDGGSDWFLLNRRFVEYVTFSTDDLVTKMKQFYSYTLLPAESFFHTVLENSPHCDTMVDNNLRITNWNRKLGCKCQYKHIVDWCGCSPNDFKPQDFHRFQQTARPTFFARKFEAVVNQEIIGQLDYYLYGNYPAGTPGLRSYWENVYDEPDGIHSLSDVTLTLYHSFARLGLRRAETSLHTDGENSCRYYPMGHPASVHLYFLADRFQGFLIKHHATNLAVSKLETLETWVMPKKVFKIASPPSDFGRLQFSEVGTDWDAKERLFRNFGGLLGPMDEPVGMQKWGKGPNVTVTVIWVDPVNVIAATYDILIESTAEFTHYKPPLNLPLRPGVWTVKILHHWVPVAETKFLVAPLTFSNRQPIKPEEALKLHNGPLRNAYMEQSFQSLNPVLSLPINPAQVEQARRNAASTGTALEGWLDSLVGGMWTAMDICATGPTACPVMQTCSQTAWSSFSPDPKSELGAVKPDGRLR
Source text: The degenerate primers PFF-sense and Lysc-inv1 which were designed upon the amino acid sequence of proteolytic cleaved peptides of human XT-I were used in a PCR reaction with first strand cDNA of placenta poly(A)^+ mRNA as template. […] To clone the complete coding sequence of the novel cDNA, the RACE strategy was employed. The cDNA finally obtained was 3608 bp (FIG. 8A) and contained a single open reading frame encoding a protein of 865 amino acids with a molecular mass of 97.000. The 3′-untranslated region is 850 bp and a 5′-untranslated region of 149 bp was identified with an in-frame stop codon upstream of the ATG codon. […] No detectable XT activity was recovered by the affinity purification from a control transfection sample. The substrate specificity of the recombinant XT-I was similar to that of the XT-I isolated from human body fluids and cell culture supernatants.
Determination of XT activity. Determination of XT activity is based on the incorporation of [14C]-D-xylose into the recombinant bikunin according to a previously described method (Brinkmann et al., 1997, J. Biol. Chem., 272, 11171-11175). For analysis of the substrate specificity of the recombinant xylosyltransferases synthetic peptides containing the XT recognition sequence were used as acceptor. The reaction mixture for the assay contained, in a total volume of 100 μl: 50 μl of XT solution, 25 mM 4-morpholineethanesulfonic acid (pH 6.5), 25 mM KCl, 5 mM KF, 5 MM MgCl2, 5 mM MnCl2, 1.0 μM UDP-[^14C]-D-xylose, and 1.5 μM of the synthetic peptides. After incubation for 75 min at 37° C., the reaction mixtures were placed on discs (25 mm diameter) of Immobilon-AV membrane, which immobilizes even small peptides by covalent links (Pfund & Bourdage, 1990, Mol. Immunol. 27, 495-502), and allowed to dry. It was then washed for 10 min with 10% trichloroacetic acid and three times with 5% trichloroacetic acid solution. Incorporated radioactivity was determined by liquid scintillation counting.
Transfection and transient expression of XT. For construction of a eukaryotic expression vector a DNA fragment including the known coding sequence of XT-I cDNA was amplified by PCR using XT_Exp1L 5′-[…]-3′ and XT_Exp3U 5′-[…]-3′ as primers and placenta first-strand cDNA (Clontech) as template. The 2450 bp fragment obtained was cloned into the vector pcDNA4/HisMax-TOPO (Invitrogen) resulting in the fusion of XT-I to the Xpress epitope. The plasmid pCG227-XT-I was then transiently transfected into CHO-K1 cells. The coding region of the XT-II cDNA was amplified by PCR using the primers AB_Exp9U 5′-AAAGGAAGGCAGAGGAAGC-3′ and AB_Exp3L 5′-ACCCCTCCACTGT-CTGTAAG-3′ and placenta first-strand cDNA as template. The obtained 2440 bp DNA fragment was cloned into the expression vector pcDNA4/HisMax-TOPO resulting in the fusion of XT-II to the aminoterminal Xpress epitope. The plasmid termed pCG226-XT-II was transiently transfected into CHO-K1 cells. 2×10^5 cells precultured for 1 day in a 35 mm diameter cell culture dish were transfected with 2 μg of plasmid DNA and 6 μl of Fugene 6 transfection reagent (Roche, Mannheim, Germany). For determination of transfection efficiency CHO-K1 cells were transfected with 2 μg of the control plasmid pcDNA4/HisMax-TOPO-lacZ. 48 h after transfection the cell culture medium was harvested. Protein G agarose beads (Sigma, Deisenhofen, Germany) and mouse anti-Xpress monoclonal antibody (Invitrogen) were added to the cell culture supernatant and incubated at 4° C. for 1 h. […]

XT [1] = assay: Effect of protamine chloride added to the XT assay solution; type: biochemical, human
Source text: UDP-D-xylose: proteoglycan core protein β-D-xylosyltransferase can be isolated and purified from JAR choriocarcinoma cell culture. The isolated protein according to the invention is a single stranded polypeptide with a molecular weight of 120.000. The protein was enzymatically cleaved and eleven peptide fragments were sequenced by Edman degradation (see Examples). XT is present only in very small amounts in animal tissues but unlike other glycosyltransferases, more than 90% of XT is enriched in the medium of cultured cells. The highest secretion of XT activity was measured in JAR choriocarcinoma cell culture, in which sternal cartilage chondrocytes and 21 different human cell lines were examined. To produce a highly enriched XT solution for the isolation of XT, JAR choriocarcinoma cells were adapted to hollow fiber culture conditions using a novel bioreactor (TECNOMOUSE) and Ultradoma-PF medium without serum addition as nutrient. For purification of XT a combination of classic separation methods and new affinity matrices was employed. Therefore, a heparin matrix was used as an affinity ligand for the XT. […]
Determination of XT activity. […] Incorporated radioactivity was determined by liquid scintillation counting.

[2] = Storage stability of purified XT enzyme activity; type: physicochemical; conditions: purified XT after protamine affinity chromatography, stored at −75° C.
Method: Step 4: Affinity chromatography on protamine chloride The product of step 3 was desalted and concentrated using dia- and ultrafiltration. […] Additional proteins were eluted with buffer A containing low NaCl concentrations. Enzyme activity was eluted at approximately 0.15 M NaCl (FIG. 1C). The enzyme activity was stable for at least 6 months at −75° C.
Step 4: Affinity chromatography on protanine chloride—XT-containing solution from step 3 was desalted as described above and concentrated to 5 ml by ultrafiltration with YM1 cellulose membranes. The ultrafiltration product was passed through a 0.2 μm filter. 100 μl of the filtrate was loaded onto a protamine chloride—POROS column (4.6×50 mm) equilibrated with buffer A. The flow rate was 10 ml/min. The column was washed with 10.0 ml of buffer A, and the adsorbed fraction was eluted with the same buffer containing NaCl by a stepwise increase of the NaCl concentration: 6.6 ml buffer A/0.04 M NaCl; 6.6 ml buffer A/0,06 M NaCl; 6.6 ml buffer A/0.23 M NaCl followed by a linear gradient of 0.23-1.20 M NaCl (4.2 ml) in buffer A. Fractions of 6.0 ml were collected, assayed for XT activity and evaluated by SDS-PAGE. Cyclic chromatography was repeated 50 times. The purified enzyme was collected, concentrated to 1.0 ml using ultrafiltration techniques and stored at −75° C.

XT [3] = conditions: cited from earlier work

XT Activitiy pCG227-XT (recombinant XT-I): 463 μU/l
Molecule: QEEGSGGGGQK [Bikunin peptide QEEGSGGGGQK, synthetic bikunin homologous peptide used as XT acceptor]

inhibition of enzyme activity of recombinantly expressed XT-I (recombinant XT-I; addition of 250 U of heparin): completely inhibited
Molecule: heparin

XT Activitiy pCG227-XT (recombinant XT-I): 492 μU/l
Molecule: TENEGSGLTNIK [L-APP peptide TENEGSGLTNIK, synthetic L-APP homologous peptide used as XT acceptor]

XT Activitiy pCG227-XT (recombinant XT-I): 515 μU/l
Molecule: SENEGSGMAEQK [L-APLP2 peptide SENEGSGMAEQK, synthetic L-APLP2 homologous peptide used as XT acceptor]

Molecule: protamine chloride
effect on XT activity (XT [1]): increased XT activity

B1: UDP-D-xylose:proteoglycan core protein β-D-xylosyltransferase (protein, UniProt Q86Y38 1-959, looked up)
Xylosyltransferase 1: MVAAPCARRLARRSHSALLAALTVLLLQTLVVWNFSSLDSGAGERRGGAAVGGGEQPPPAPAPRRERRDLPAEPAAARGGGGGGGGGGGGRGPQARARGGGPGEPRGQQPASRGALPARALDPHPSPLITLETQDGYFSHRPKEKVRTDSNNENSVPKDFENVDNSNFAPRTQKQKHQPELAKKPPSRQKELLKRKLEQQEKGKGHTFPGKGPGEVLPPGDRAAANSSHGKDVSRPPHARKTGGSSPETKYDQPPKCDISGKEAISALSRAKSKHCRQEIGETYCRHKLGLLMPEKVTRFCPLEGKANKNVQWDEDSVEYMPANPVRIAFVLVVHGRASRQLQRMFKAIYHKDHFYYIHVDKRSNYLHRQVLQVSRQYSNVRVTPWRMATIWGGASLLSTYLQSMRDLLEMTDWPWDFFINLSAADYPIRTNDQLVAFLSRYRDMNFLKSHGRDNARFIRKQGLDRLFLECDAHMWRLGDRRIPEGIAVDGGSDWFLLNRRFVEYVTFSTDDLVTKMKQFYSYTLLPAESFFHTVLENSPHCDTMVDNNLRITNWNRKLGCKCQYKHIVDWCGCSPNDFKPQDFHRFQQTARPTFFARKFEAVVNQEIIGQLDYYLYGNYPAGTPGLRSYWENVYDEPDGIHSLSDVTLTLYHSFARLGLRRAETSLHTDGENSCRYYPMGHPASVHLYFLADRFQGFLIKHHATNLAVSKLETLETWVMPKKVFKIASPPSDFGRLQFSEVGTDWDAKERLFRNFGGLLGPMDEPVGMQKWGKGPNVTVTVIWVDPVNVIAATYDILIESTAEFTHYKPPLNLPLRPGVWTVKILHHWVPVAETKFLVAPLTFSNRQPIKPEEALKLHNGPLRNAYMEQSFQSLNPVLSLPINPAQVEQARRNAASTGTALEGWLDSLVGGMWTAMDICATGPTACPVMQTCSQTAWSSFSPDPKSELGAVKPDGRLR
notes: enzyme (EC 2.4.2.26) purified from JAR choriocarcinoma cell culture supernatant, MW 120.000
time for which enzyme activity was stable [2]: at least 6 months

XT Activitiy pCG227-XT (recombinant XT-I): 2854 μU/l
B2: Recombinant bikunin: recombinant bikunin, the inhibitory component of human inter-α-trypsin inhibitor; XT acceptor protein (protein, UniProt P02760 206-352, looked up)
Inter-alpha-trypsin inhibitor …: AVLPQEEEGSGGGQLVTEVTKKEDSCQLGYSAGPCMGMTSRYFYNGTSMACETFQYGGCMGNGNNFVTEKECLQTCRTVAACNLPIVRGPCRAFIQLWAFDAVKGKCVLFPYGGCQGNGNKFYSEKECREYCGVPGDGDEELLRFSN
modifications: Inter-alpha-trypsin inhibitor light chain recombinant
notes: XT acceptor protein
Km (XT [3]; enriched XT preparation from conditioned cell culture supernatant of human chondrocytes, read-out: Michaelis-Menten (Km) constant for in vitro xylosylation): 22 µM
decrease of Km in comparison to deglycosylated core protein from bovine cartilage (XT [3]; enriched XT preparation from human chondrocytes): 9 fold
